Measurements reported in US20230279138A1 (CHIA TAI TIANQING PHARMACEUTICAL GROUP, published 2023).

What was measured:
[1] = molecular target: T1, CD20 on Raji cells (CD20+/CD3- cells) (human, UniProt P11836 1-297); experiment: flow cytometry on Raji cells (CD20+/CD3-)
T1 construct: whole, on cells; Raji, Ramos and NAMALWA in the killing assays; also called Ramos; NAMALWA
T1 sequence (looked up): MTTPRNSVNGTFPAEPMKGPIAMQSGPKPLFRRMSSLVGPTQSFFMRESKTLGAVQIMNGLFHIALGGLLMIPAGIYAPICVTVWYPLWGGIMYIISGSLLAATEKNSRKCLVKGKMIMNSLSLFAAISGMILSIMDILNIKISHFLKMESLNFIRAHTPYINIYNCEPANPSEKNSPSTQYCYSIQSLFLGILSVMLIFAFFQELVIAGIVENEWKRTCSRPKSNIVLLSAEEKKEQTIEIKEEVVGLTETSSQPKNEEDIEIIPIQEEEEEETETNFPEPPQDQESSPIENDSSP
Protocol: (§1) After incubation, the cells were washed twice with cold 1% BSA/1×PBS. […] After being washed twice, the geometric mean fluorescence (MFI) of the stained cells was measured using a FACS Canto II […] (BD Biosciences). Wells containing no antibody or containing only fluorescent secondary antibody were used to establish background fluorescence. The EC50 values for cell binding were determined using GraphPad Prism 5 software (GraphPad Software, La Jolla, Calif.); each value was calculated by four-parameter non-linear regression analysis.

[2] = molecular target: T2, CD3 on Jurkat cells (CD3+/CD20- cells) (human, UniProt P07766 23-207; P04234 22-171; P09693 23-182); experiment: flow cytometry on Jurkat 2B8 cells (CD3+/CD20-)
T2 construct: whole, on cells; also called Jurkat 2B8
T2 sequence (P07766 23-207, chain 1 of 3): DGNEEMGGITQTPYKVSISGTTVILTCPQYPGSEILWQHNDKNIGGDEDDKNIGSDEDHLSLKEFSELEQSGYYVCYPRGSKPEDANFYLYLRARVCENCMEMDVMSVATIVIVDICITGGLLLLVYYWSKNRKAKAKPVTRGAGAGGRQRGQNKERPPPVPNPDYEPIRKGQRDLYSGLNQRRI
T2 sequence (P04234 22-171, chain 2 of 3): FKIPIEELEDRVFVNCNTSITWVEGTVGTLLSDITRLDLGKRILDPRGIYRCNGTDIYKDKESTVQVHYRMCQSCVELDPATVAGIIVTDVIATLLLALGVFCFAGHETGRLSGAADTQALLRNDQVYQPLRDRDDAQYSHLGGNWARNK
T2 sequence (P09693 23-182, chain 3 of 3): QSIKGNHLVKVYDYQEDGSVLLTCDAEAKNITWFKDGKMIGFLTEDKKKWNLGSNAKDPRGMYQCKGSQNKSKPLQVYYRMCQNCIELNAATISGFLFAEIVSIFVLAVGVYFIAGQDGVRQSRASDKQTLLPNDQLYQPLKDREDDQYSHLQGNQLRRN
Protocol: as §1

B1: W3278-U3T2.F18R-1.uIgG4.SP (bispecific antibody)
heavy 1: EVQLVESGGGLVQPGRSLRLSCAASGFTFNDYAMHWVRQAPGKGLEWVSTISWNSGSIGYADSVKGRFTISRDNAKKSLYLQMNSLRAEDTALYYCAKDIQYGNYYYGMDVWGQGTTVTVSSASTKGPSVFPLAPCSRSTSESTAALGCLVKDYFPEPVTVSWNSGALTSGVHTFPAVLQSSGLYSLSSVVTVPSSSLGTKTYTCNVDHKPSNTKVDKRVGGGGSGGGGSQVQLVQSGAEVKKPGSSVKVSCKASGYSFTTYYIHWVRQAPGQGLEWMGWIFPGNDNIKYSEKFKGRVTITADKSTSTAYMELSSLRSEDTAVYYCAIDSVSIYYFDYWGQGTLVTVLEDLKNVFPPEVAVFEPSEAEISHTQKATLVCLATGFYPDHVELSWWVNGKEVHSGVCTDPQPLKEQPALQDSRYALSSRLRVSATFWQNPRNHFRCQVQFYGLSENDEWTQDRAKPVTQIVSAEAWGRYGPPCPPCPAPEFLGGPSVFLFPPKPKDTLMISRTPEVTCVVVDVSQEDPEVQFNWYVDGVEVHNAKTKPREEQFNSTYRVVSVLTVLHQDWLNGKEYKCKVSNKGLPSSIEKTISKAKGQPREPQVYTLPPCQEEMTKNQVSLWCLVKGFYPSDIAVEWESNGQPENNYKTTPPVLDSDGSFFLYSRLTVDKSRWQEGNVFSCSVMHEALHNHYTQKSLSLSLG
heavy 2: EVQLVESGGGLVQPGRSLRLSCAASGFTFNDYAMHWVRQAPGKGLEWVSTISWNSGSIGYADSVKGRFTISRDNAKKSLYLQMNSLRAEDTALYYCAKDIQYGNYYYGMDVWGQGTTVTVSSASTKGPSVFPLAPCSRSTSESTAALGCLVKDYFPEPVTVSWNSGALTSGVHTFPAVLQSSGLYSLSSVVTVPSSSLGTKTYTCNVDHKPSNTKVDKRVESKYGPPCPPCPAPEFLGGPSVFLFPPKPKDTLMISRTPEVTCVVVDVSQEDPEVQFNWYVDGVEVHNAKTKPREEQFNSTYRVVSVLTVLHQDWLNGKEYKCKVSNKGLPSSIEKTISKAKGQPREPQVCTLPPSQEEMTKNQVSLSCAVKGFYPSDIAVEWESNGQPENNYKTTPPVLDSDGSFFLVSRLTVDKSRWQEGNVFSCSVMHEALHNHYTQKSLSLSLG
light 1: not shown
light 2: DIVMTQSPDSLAVSLGERATINCKSSQSLLNSRTRKNYLAWYQQKPGQPPKLLIYWASTRKSGVPDRFSGSGSGTDFTLTISSLQAEDVAVYYCTQSFILRTFGGGTKVEIKPDIQNPDPAVYQLRDSKSSDKSVCLFTDFDSQTQVSQSKDSDVYITDKCVLDMRSMDFKSNSAVAWSQKSDFACANAFQNSIIPEDTFFPSPESS
notes: Human IgG4 S228P, knobs-into-holes; also called W3278 BsAb; WBP3278 BsAb
[1]
  EC50: 1.3 nM
  TOP MFI: 55400 MFI
[2]
  EC50: 26.6 nM
  TOP MFI: 536 MFI
